The target in test [1] is T1, N-Terminal FITC labeled ubiquitin (UniProt P0CG47 1-76, FITC on the N-terminus). The experiment in a line: binding of a fluorescent ligand to cells.
The target in test [2] is T1, N-Terminal FITC labeled ubiquitin. Nature of the test: binding of a fluorescent ligand to cells. The source holds these as a separate data set.

Read-outs that look alike come from different tables or passages of the source.

B1: CXC chemokine receptor (CXCR) 4 on BV-2 cells (receptor, mouse (endogenous in BV-2), UniProt P70658 1-359, looked up)
chain: MEPISVSIYTSDNYSEEVGSGDYDSNKEPCFRDENVHFNRIFLPTIYFIIFLTGIVGNGLVILVMGYQKKLRSMTDKYRLHLSVADLLFVITLPFWAVDAMADWYFGKFLCKAVHIIYTVNLYSSVLILAFISLDRYLAIVHATNSQRPRKLLAEKAVYVGVWIPALLLTIPDFIFADVSQGDISQGDDRYICDRLYPDSLWMVVFQFQHIMVGLILPGIVILSCYCIIISKLSHSKGHQKRKALKTTVILILAFFACWLPYYVGISIDSFILLGVIKQGCDFESIVHKWISITEALAFFHCCLNPILYAFLGAKFKSSAQHALNSMSRGSSLKILSKGKRGGHSSVSTESESSSFHSS
As to B1, the figures for the Kd in test [1] and in test [2] were 0.119 µM and 0.154 µM, respectively.

As a reminder, the Kd is a measure of binding affinity in units of concentration. Lower therefore signals a tighter complex.

For the origin of these results see article PMC4113718 (Biochemistry, 2013).
